# Source: patent US20140057332A1, “GLUCO-OLIGOSACCHARIDE OXIDASES FROM ACREMONIUM STRICTUM AND USES THEREOF” (The Governing Council of the University of Toronto, priority 2011, published 2014)
# B1: Acremonium strictum gluco-oligosaccharide oxidase GOOX-VN (type strain CBS 346.70, V38 and N388), SEQ ID NO. 2 (Sarocladium strictum; A38V/S388N) (protein)
# chain: NSINACLAAADVEFHEEDSEGWEMDGTAFNLRVDYDPVAIAIPRSTEDIAAAVQCGLDAGVQISAKGGGHSYGSYGFGGEDGHLMLELDRMYRVSVDDDNVATIQGGARLGYTALELLDQGNRALTHGTCPAVGIGGHVLGGGYGFATHTHGLTLDWLVGATVVLADASIVHVSKTENADLFWALRGGGGGFAIVSEFEFNTFEAPEIITTYQVTTTWNRKQHVAGLKALQDWAENTMPRELSMRLEINANALNWEGNYFGNAKDLKKVLQPIMKKAGGKSTISKLVETDWYGQINTYLYGADLNITYNYDVHEYFYANSLTAPRLSDEAISAFVDYKFDNSSVRPGRGWWIQWDFHGGKNSALASHSNDETAYAHRDQLWLWQFYDNIYDYENNTSPYPESGFEFMQGFVATIEDTLPEDRKGKYFNYADTTLDKEEAQKLYWRGNLEKLQAIKAKYDPEDVFGNVVSVEPIA
# Key:
# [1] = Temperature stability (residual activity on cellobiose); format: physicochemical; conditions: for Residual activity after 1 h: assay 1 mM cellobiose, 37° C., pH 8
# Description: Temperature stability was measured by incubating 0.2 μg of enzyme for 1 h at nine different temperatures ranging from 25 to 60° C. (Table 9). While GOOX-VN and the variant GOOX-V were stable at 45° C., both lost more than 70% activity after incubation for 1 h at 50° C. […] The pH stability of GOOX-VN was determined by incubating 0.2 μg of the enzyme for 1 h at pH values from pH 3 to 12. After 1 h of incubation, GOOX-VN retained more than 80% activity at pH 5 to pH 10, 40% activity at pH 4, and less than 10% activity at pH values below 3 or above 11. Finally, the optimum pH for GOOX-VN activity was determined by incubating 0.1 μg of enzyme at 37° C. for up to 5 min with 25 mM cellobiose in 25 mM Britton-Robinson universal buffer solutions at pH 5 to 12. At regular time points, the chromogenic assay mix containing 400 mM potassium phosphate buffer pH 6, 0.1 mM 4-aminoantipyrine, 1 mM phenol, 3 U/ml horseradish peroxidase and 40 mM cellobiose was added to the reaction and was incubated for approximately 5 min at 37° C., until the chromogenic compound was detected.
# [2] = Chromogenic H2O2 oxidase assay on xylohexaose; conditions: 1 mM xylohexaose; 37° C., 15 min
# Description: A chromogenic assay was used to measure hydrogen peroxide production (15). Reactions contained 0.1 mM 4aminoantipyrine (4AA), 1 mM phenol, 0.5 U horseradish peroxidase, 40 mM Tris-HCl (pH 8.0), and different substrates were initiated by adding 0.2 μg of enzymes to the 250 μL reaction mixture. The production of H2O2 was coupled to the oxidation of 4aminoantipyrine by horseradish peroxidase and detected at 500 nm. Reactions were incubated at 37° C. for 15 min to measure the specific activity of GOOX on 10 mM of monosaccharide or 1 mM of oligosaccharide.
# An additional eight mutations, identified as Y72F, Y72A, E247A, E314A, W351A, N388S, Q353N, Q384A, were created in GOOX-VN to assess the influence of these residues on the substrate selectivity of GOOX-VN. […] The specific activity of each mutant was then measured at 37° C. for 15 min using 10 mM mono-sugars and 1 mM oligosaccharides as performed for Y300A, Y300N, and W351F (Table 11).
# [3] = substrate: OC1OC[C@@H](O[C@@H]2OC[C@@H](O)[C@H](O)[C@H]2O)[C@H](O)[C@H]1O; assay: purified protein, by the assay type; conditions: other: 37° C., pH 8.0
# [4] = substrate: OC1OC[C@@H](O[C@@H]2OC[C@@H](O[C@@H]3OC[C@@H](O)[C@H](O)[C@H]3O)[C@H](O)[C@H]2O)[C@H](O)[C@H]1O; assay: purified protein, by the assay type; conditions: other: 37° C., pH 8.0
# [5] = substrate: OC[C@H]1O[C@@H](O[C@H]2[C@H](O)[C@@H](O)C(O)O[C@@H]2CO)[C@H](O)[C@@H](O)[C@@H]1O; assay: purified protein, by the assay type; conditions: other: 37° C., pH 8.0
molecule,measurement,setting,value
B1,stability at 45° C.,[1]; 1 h at 45° C.,stable
same,Residual activity after 1 h,[1]; incubation at 25° C.,100%
same,Residual activity after 1 h,[1]; incubation at 30° C.,95%
same,Residual activity after 1 h,[1]; incubation at 35° C.,100%
same,Residual activity after 1 h,[1]; incubation at 40° C.,100%
same,Residual activity after 1 h,[1]; incubation at 45° C.,64%
same,Residual activity after 1 h,[1]; incubation at 50° C.,7%
same,Residual activity after 1 h,[1]; incubation at 55° C.,<5%
same,Residual activity after 1 h,[1]; incubation at 60° C.,<5%
same,Specific Activity of Enzyme Variants,[2],11.0 µmol/min/mg
same,Km,[3],100 ± 0 µM
same,kcat,[3],8.813 ± 0.085 s⁻¹
same,kcat/Km,[3],89800 ± 867 M⁻¹ s⁻¹
same,Km,[4],100 ± 10 µM
same,kcat,[4],8.31 ± 0.123 s⁻¹
same,kcat/Km,[4],84300 ± 8530 M⁻¹ s⁻¹
same,Km,[5],70 ± 10 µM
same,kcat,[5],6.25 ± 0.178 s⁻¹
same,kcat/Km,[5],95500 ± 13900 M⁻¹ s⁻¹
